The assay addresses 326^βB (TP0326 β-barrel construct with a C-terminal His-tag) (Treponema pallidum subspecies pallidum (Nichols-Farmington strain)). Description: native gel or EMSA.

As usually defined, the stoichiometry N is the number of molecules, sites or subunits per partner or assembly.

“326^βB (TP0326 β-barrel construct with a C-terminal His-tag) (domain or fragment)”: the stoichiometry N came to 3.

(Values after paper PMC3115443.)
